Drawing on patent US20260275344, this text covers activity for 1 substance.

The data set relates to PiggyBac transposase. Description: cell_activity.

In the case of ITR-EF1a-GFP-ITR cssDNA, the activity was found to be 39.3 % GFP+ cells (K562 day 21, donor alone ~2.37%) and 7.54 % GFP+ cells (primary human T cells day 14, donor alone ~0.16%).
